Test results: the supplement of paper PMC9112550, “Optimization of the antimicrobial peptide Bac7 by deep mutational scanning” (BMC Biology, 2022)

Tested on: Escherichia coli TOP10
Experiment: shrunken log2 fold change of peptide-encoding DNA abundance (4.5 h post-induction vs induction); higher = less antimicrobial activity (less host growth inhibition)
Settings: time post-induction: 4.5 h; library: site-saturation at positions 5, 18, 19, 20
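Note: peptides expressed intracellularly from a pBAD plasmid library in pooled LB shake-flask culture, induced with 0.3% L-arabinose, DNA abundance read by NGS, three biological replicates, DESeq2 with apeglm shrinkage.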

Row | Sequence | shrunken log2 fold change
1 | RRIRMRPPRLPRPRPRPCIGPRP | 0.0503
2 | RRIRYRPPRLPRPRPRPVKEPRP | 0.00241
3 | RRIRDRPPRLPRPRPRPTMAPRP | 0.695
4 | RRIRFRPPRLPRPRPRPEDFPRP | 0.0568
5 | RRIRSRPPRLPRPRPRPGPTPRP | 0.788
6 | RRIRRRPPRLPRPRPRPTLYPRP | 0.595
7 | RRIRVRPPRLPRPRPRPCQAPRP | -0.0137
8 | RRIRVRPPRLPRPRPRPVNGPRP | 0.158
9 | RRIRKRPPRLPRPRPRPKQTPRP | 0.00774
10 | RRIRHRPPRLPRPRPRPIITPRP | -1.46
11 | RRIRGRPPRLPRPRPRPGMFPRP | 0.474
12 | RRIRFRPPRLPRPRPRPCPCPRP | -0.21
13 | RRIRPRPPRLPRPRPRPTSMPRP | -0.0129
14 | RRIRQRPPRLPRPRPRPHEEPRP | -0.0442
15 | RRIRWRPPRLPRPRPRPDINPRP | 0.235
16 | RRIRKRPPRLPRPRPRPCEHPRP | 0.015
17 | RRIRCRPPRLPRPRPRPICTPRP | -0.307
18 | RRIRERPPRLPRPRPRPDAYPRP | -0.532
19 | RRIRDRPPRLPRPRPRPDEVPRP | -0.01
20 | RRIRVRPPRLPRPRPRPTAQPRP | -0.113
21 | RRIRVRPPRLPRPRPRPLFFPRP | -0.121
22 | RRIRFRPPRLPRPRPRPVTQPRP | -0.244
23 | RRIRARPPRLPRPRPRPRAHPRP | 0.256
24 | RRIRWRPPRLPRPRPRPLWKPRP | -0.128
25 | RRIRERPPRLPRPRPRPKFMPRP | -0.293

Row | Sequence | shrunken log2 fold change
26 | RRIRKRPPRLPRPRPRPLFIPRP | -0.291
27 | RRIRNRPPRLPRPRPRPTFPPRP | -0.112
28 | RRIRCRPPRLPRPRPRPCSQPRP | -0.256
29 | RRIRRRPPRLPRPRPRPIMMPRP | -0.00819
30 | RRIRMRPPRLPRPRPRPHSWPRP | 0.273
31 | RRIRVRPPRLPRPRPRPEIQPRP | 0.349
32 | RRIRPRPPRLPRPRPRPYADPRP | 0.0774
33 | RRIRQRPPRLPRPRPRPLEEPRP | 0.275
34 | RRIRPRPPRLPRPRPRPCPNPRP | -0.0908
35 | RRIRPRPPRLPRPRPRPACFPRP | 0.45
36 | RRIRDRPPRLPRPRPRPKNTPRP | -0.226
37 | RRIRTRPPRLPRPRPRPQEHPRP | -0.0662
38 | RRIRSRPPRLPRPRPRPSVHPRP | -0.352
39 | RRIRNRPPRLPRPRPRPYWCPRP | -0.00264
40 | RRIRYRPPRLPRPRPRPFASPRP | -0.000244
41 | RRIRLRPPRLPRPRPRPQADPRP | 0.112
42 | RRIRMRPPRLPRPRPRPPNYPRP | 0.0891
43 | RRIRIRPPRLPRPRPRPAADPRP | 0.0637
44 | RRIRFRPPRLPRPRPRPDLFPRP | 0.0316
45 | RRIRERPPRLPRPRPRPNRSPRP | -0.0779
46 | RRIRQRPPRLPRPRPRPWGQPRP | 0.000222
47 | RRIRHRPPRLPRPRPRPDIRPRP | 0.0226
48 | RRIRTRPPRLPRPRPRPWKMPRP | -0.0793
49 | RRIRLRPPRLPRPRPRPCRWPRP | 0.252
50 | RRIRSRPPRLPRPRPRPMDSPRP | -0.279

Row | Sequence | shrunken log2 fold change
51 | RRIRARPPRLPRPRPRPEDSPRP | 0.32
52 | RRIRHRPPRLPRPRPRPNCFPRP | 0.0486
53 | RRIRWRPPRLPRPRPRPHWSPRP | -0.182
54 | RRIRHRPPRLPRPRPRPQTHPRP | -0.143
55 | RRIRRRPPRLPRPRPRPFLHPRP | 0.0267
56 | RRIRMRPPRLPRPRPRPTGGPRP | 0.454
57 | RRIRCRPPRLPRPRPRPIDWPRP | 0.0664
58 | RRIRTRPPRLPRPRPRPKNKPRP | -0.525
59 | RRIRVRPPRLPRPRPRPWYIPRP | -0.0193
60 | RRIRIRPPRLPRPRPRPTRQPRP | -0.00609
61 | RRIRFRPPRLPRPRPRPFVEPRP | -0.27
62 | RRIRKRPPRLPRPRPRPVCIPRP | 0.0558
63 | RRIRRRPPRLPRPRPRPMWVPRP | -0.135
64 | RRIRKRPPRLPRPRPRPLPLPRP | 0.387
65 | RRIRGRPPRLPRPRPRPLRYPRP | 0.688
66 | RRIRLRPPRLPRPRPRPWCEPRP | -0.271
67 | RRIRHRPPRLPRPRPRPMIKPRP | -0.0726
68 | RRIRTRPPRLPRPRPRPRRSPRP | 0.318
69 | RRIRYRPPRLPRPRPRPPVIPRP | -0.0623
70 | RRIRNRPPRLPRPRPRPQAIPRP | 0.00297
71 | RRIRERPPRLPRPRPRPERWPRP | -0.00254
72 | RRIRCRPPRLPRPRPRPIRYPRP | -1.42
73 | RRIRLRPPRLPRPRPRPEDLPRP | 0.14
74 | RRIRKRPPRLPRPRPRPDRWPRP | 0.683
75 | RRIRTRPPRLPRPRPRPKYNPRP | -0.81
